# Test results: PMC4085576
# Molecular target: microtubules (X-rhodamine labeled, biotin-linked to the surface)
# Test: TIRF microscopy of GFP-tagged protein on immobilised microtubules
binder,measurement,value
"KIF7_(560)-GFP, N-terminal motor domain and first coiled-coil of KIF7 with a C-terminal GFP tag (domain or fragment) MGLEAQRLPGAEEAPVRVALRVRPLLPKELLHGHQSCLRVEPERGRITLGRDRHFGFHVVLGEDTGQEAVYQACVQPLLEAFFEGFNATVFAYGQTGSGKTYTMGEASVASLHEDEQGIIPRAMAEAFKLIDENDLLDCLVHVSYLELYKEEFRDLLEVGTASRDIQLREDDRGNVVLCGVKEVDVEGLDEVLSLLEMGNAARHTGATHFNRLSSRSHTVFTVTLEQRGRTPSRLPRPAAGHLLVSKFHFVDLAGSERVLKTGSTGERLKESIQINSTLLALGNVISALGDPQRRGSHIPYRDSKITRILKDSLGGNAKTVMIACVSPSSSDFDETLNTLNYASRAQNIRNRATVNWHPEAERVPEEQAAGARGPPRHRSETRIIHRGRRVPCPAVGSAAVAAGLGAECARCRARTSAAYSLLRELQAEPGLPGAAARKVRDWLCAVEGERSTLSSASGPDSGIESAPAEDQAAQGTSGRKGDEGTQQLLTLQSQVARLEEENRDFLAALEDAMEQYKLQSDRLREQQEEMVELRLRLELAQPGWGAPGLLQGLPPGSFV",fold increase in filament-bound KIF7 with 2 mM AMP-PNP against 1 mM MgATP,2 fold
